Test [1] concerns the target BxpB (recombinant, 167 residues, His6 tag removed with Factor Xa) (Bacillus anthracis (Sterne strain)) (UniProt S5W424). Nature of the test: SEC-MALS.
Test [2] has the same target. Nature of the test: crystal structure.

As a reminder, the stoichiometry N is a count of units in the complex or per binding partner. On to “BxpB (recombinant, 167 residues, His6 tag removed with Factor Xa) (from UniProt S5W424 1-167) (natural protein)”, for which the stoichiometry N in test [1] and in test [2] was 3 each time.

The values are drawn from PMC10470788.
